Experimental data taken from patent US20240409614A1 (DANMARKS TEKNISKE UNIVERSITET, published 2024).
Substitutions are numbered along the chain they refer to. Names may count otherwise. Values belong to the binder of their own block, whether it stands above or below them.

Molecular target: elastase (EnzChek Elastase Assay kit, Invitrogen)
Assay: cell-based or functional assay

IC50 (anti-elastase activity), first determination: 74.6 nM | IC50 (anti-elastase activity), second determination: 78.2 nM
B1: A1AT-M351V/L353A/M358V (other)
chain: EDPQGDAAQKTDTSHHDQDHPTFNKITPNLAEFAFSLYRQLAHQSNSTNIFFSPVSIATAFAMLSLGTKADTHDEILEGLNFNLTEIPEAQIHEGFQELLRTLNQPDSQLQLTTGNGLFLSEGLKLVDKFLEDVKKLYHSEAFTVNFGDTEEAKKQINDYVEKGTQGKIVDLVKELDRDTVFALVNYIFFKGKWERPFEVKDTEEEDFHVDQVTTVKVPMMKRLGMFNIQHCKKLSSWVLLMKYLGNATAIFFLPDEGKLQHLENELTHDIITKFLENEDRRSASLHLPKLSITGTYDLKSVLGQLGITKVFSNGADLSGVTEEAPLKLSKAVHKAVLTIDEKGTEAAGAVFAEAIPVSIPPEVKFNKPFVFLMIEQNTKSPLFMGKVVNPTQK

IC50 (anti-elastase activity), first determination: 98.9 nM | IC50 (anti-elastase activity), second determination: 115 nM
B2: A1AT-M351V/L353T/M358V (other)
chain: B1 chain with A353T

IC50 (anti-elastase activity), first determination: 86.9 nM | IC50 (anti-elastase activity), second determination: 108 nM
B3: A1AT-M351V/L353S/M358V (other)
chain: B1 chain with A353S
